From IntAct's records for PubMed 27754869 come the findings set out here.

The chains are these.
B1: Natural cytotoxicity triggering receptor 3 (Homo sapiens), O14931 (parent)
chain: MAWMLLLILIMVHPGSCALWVSQPPEIRTLEGSSAFLPCSFNASQGRLAIGSVTWFRDEVVPGKEVRNGTPEFRGRLAPLASSRFLHDHQAELHIRDVRGHDASIYVCRVEVLGLGVGTGNGTRLVVEKEHPQLGAGTVLLLRAGFYAVSFLSVAVGSTVYYQGKCLTWKGPRRQLPAVVPAPLPPPCGSSAHLLPPVPGG

The variants in this assay derive from B1. The conditions noted are these: with BAG6, P46379-2.
Sequence of BAG6, P46379-2 (P46379 other isoform, or with tags, fused parts or gaps): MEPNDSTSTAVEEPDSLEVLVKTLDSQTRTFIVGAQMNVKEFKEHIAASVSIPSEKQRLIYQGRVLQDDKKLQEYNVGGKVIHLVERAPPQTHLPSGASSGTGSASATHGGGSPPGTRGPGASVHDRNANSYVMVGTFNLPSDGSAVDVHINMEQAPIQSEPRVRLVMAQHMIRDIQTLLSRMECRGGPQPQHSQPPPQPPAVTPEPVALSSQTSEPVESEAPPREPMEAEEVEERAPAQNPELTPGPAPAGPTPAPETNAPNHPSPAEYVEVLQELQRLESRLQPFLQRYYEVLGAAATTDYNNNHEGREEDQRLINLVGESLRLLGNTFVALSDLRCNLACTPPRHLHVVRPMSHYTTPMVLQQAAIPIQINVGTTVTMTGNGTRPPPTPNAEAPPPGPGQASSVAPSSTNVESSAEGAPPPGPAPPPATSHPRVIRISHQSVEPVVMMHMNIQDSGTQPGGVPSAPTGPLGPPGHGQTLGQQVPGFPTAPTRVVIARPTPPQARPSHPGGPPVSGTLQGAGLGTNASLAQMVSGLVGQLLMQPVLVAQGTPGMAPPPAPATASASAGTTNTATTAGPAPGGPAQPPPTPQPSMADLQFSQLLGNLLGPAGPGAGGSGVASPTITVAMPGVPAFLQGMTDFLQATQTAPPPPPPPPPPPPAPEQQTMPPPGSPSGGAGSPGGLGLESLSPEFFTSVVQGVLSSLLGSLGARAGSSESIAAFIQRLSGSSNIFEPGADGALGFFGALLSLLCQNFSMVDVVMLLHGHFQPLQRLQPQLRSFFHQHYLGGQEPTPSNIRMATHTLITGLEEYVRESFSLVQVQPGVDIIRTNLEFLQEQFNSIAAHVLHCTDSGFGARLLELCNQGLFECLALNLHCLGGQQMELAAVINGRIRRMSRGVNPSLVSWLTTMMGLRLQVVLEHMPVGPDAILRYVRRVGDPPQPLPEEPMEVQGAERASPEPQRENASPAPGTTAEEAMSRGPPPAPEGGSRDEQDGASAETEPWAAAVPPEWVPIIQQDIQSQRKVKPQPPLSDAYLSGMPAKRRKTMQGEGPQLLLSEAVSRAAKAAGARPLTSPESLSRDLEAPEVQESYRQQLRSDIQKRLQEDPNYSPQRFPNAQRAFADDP
With MAWMLLLILIMVHPGSCALWVSQPPEIRTLEGSSAFLPCSFNASQGRLAIGSVTWFRDEVVPGKEVRNGTPEFRGRLAPLASSRFLHDHQAELHIRDVRGHDASIYVCRVEVLGLGVGTGNGTRLVVEKEHPQLGAGTVALLRAGFYAVSFLSVAVGSTVYYQGKCLTWKGPRRQLPAVVPAPLPPPCGSSAHLLPPVPGG [L140A], the “effect of a mutation on the interaction” value was “with no effect”. For MAWMLLLILIMVHPGSCALWVSQPPEIRTLEGSSAFLPCSFNASQGRLAIGSVTWFRDEVVPGKEVRNGTPEFRGRLAPLASSRFLHDHQAELHIRDVRGHDASIYVCRVEVLGLGVGTGNGTRLVVEKEAPQLGAGTVLLLRAGFYAVSFLSVAVGSTVYYQGKCLTWKGPRRQLPAVVPAPLPPPCGSSAHLLPPVPGG [H131A], the “effect of a mutation on the interaction” value is listed as “with no effect”.

For MAWMLLLILIMVHPGSCALWVSQPPEIRTLEGSSAFLPCSFNASQGRLAIGSVTWFRDEVVPGKEVRNGTPEFRGRLAPLASSRFLHDHQAELHIRDVRGHDASIYVCRVEVLGLGVGTGNGTRLVVEKEHPQLGAGTVLLLAAGFYAVSFLSVAVGSTVYYQGKCLTWKGPRRQLPAVVPAPLPPPCGSSAHLLPPVPGG [R143A], the “effect of a mutation on the interaction” value is listed as “decreasing interaction strength”. Turning to MAWMLLLILIMVHPGSCALWVSQPPEIRTLEGSSAFLPCSFNASQGRLAIGSVTWFRDEVVPGKEVRNGTPEFRGRLAPLASSRFLHDHQAELHIRDVRGHDASIYVCRVEVLGLGVGTGNGTRLVVEKEHPQLGAGAVLLLRAGFYAVSFLSVAVGSTVYYQGKCLTWKGPRRQLPAVVPAPLPPPCGSSAHLLPPVPGG [T138A], the “effect of a mutation on the interaction” value is recorded as “increasing interaction strength”. On to MAWMLLLILIMVHPGSCALWVSQPPEIRTLEGSSAFLPCSFNASQGRLAIGSVTWFRDEVVPGKEVRNGTPEFRGRLAPLASSRFLHDHQAELHIRDVRGHDASIYVCRVEVLGLGVGTGNGTRLVVEKEHPQAGAGTVLLLRAGFYAVSFLSVAVGSTVYYQGKCLTWKGPRRQLPAVVPAPLPPPCGSSAHLLPPVPGG [L134A], for which the “effect of a mutation on the interaction” value is given as “with no effect”. With MAWMLLLILIMVHPGSCALWVSQPPEIRTLEGSSAFLPCSFNASQGRLAIGSVTWFRDEVVPGKEVRNGTPEFRGRLAPLASSRFLHDHQAELHIRDVRGHDASIYVCRVEVLGLGVGTGNGTRLVVEKEHPALGAGTVLLLRAGFYAVSFLSVAVGSTVYYQGKCLTWKGPRRQLPAVVPAPLPPPCGSSAHLLPPVPGG [Q133A] the entry was “with no effect”; with MAWMLLLILIMVHPGSCALWVSQPPEIRTLEGSSAFLPCSFNASQGRLAIGSVTWFRDEVVPGKEVRNGTPEFRGRLAPLASSRFLHDHQAELHIRDVRGHDASIYVCRVEVLGLGVGTGNGTRLVVEKEHPQLGAGTVLALRAGFYAVSFLSVAVGSTVYYQGKCLTWKGPRRQLPAVVPAPLPPPCGSSAHLLPPVPGG [L141A], “decreasing interaction strength”. The result for MAWMLLLILIMVHPGSCALWVSQPPEIRTLEGSSAFLPCSFNASQGRLAIGSVTWFRDEVVPGKEVRNGTPEFRGRLAPLASSRFLHDHQAELHIRDVRGHDASIYVCRVEVLGLGVGTGNGTRLVVEKEHPQLGAGTVLLARAGFYAVSFLSVAVGSTVYYQGKCLTWKGPRRQLPAVVPAPLPPPCGSSAHLLPPVPGG [L142A] reads “decreasing interaction strength”; that for MAWMLLLILIMVHPGSCALWVSQPPEIRTLEGSSAFLPCSFNASQGRLAIGSVTWFRDEVVPGKEVRNGTPEFRGRLAPLASSRFLHDHQAELHIRDVRGHDASIYVCRVEVLGLGVGTGNGTRLVVEKEHPQLAAGTVLLLRAGFYAVSFLSVAVGSTVYYQGKCLTWKGPRRQLPAVVPAPLPPPCGSSAHLLPPVPGG [G135A], “increasing interaction strength”; that for MAWMLLLILIMVHPGSCALWVSQPPEIRTLEGSSAFLPCSFNASQGRLAIGSVTWFRDEVVPGKEVRNGTPEFRGRLAPLASSRFLHDHQAELHIRDVRGHDASIYVCRVEVLGLGVGTGNGTRLVVEAEHPQLGAGTVLLLRAGFYAVSFLSVAVGSTVYYQGKCLTWKGPRRQLPAVVPAPLPPPCGSSAHLLPPVPGG [K129A], “decreasing interaction strength”. In the case of MAWMLLLILIMVHPGSCALWVSQPPEIRTLEGSSAFLPCSFNASQGRLAIGSVTWFRDEVVPGKEVRNGTPEFRGRLAPLASSRFLHDHQAELHIRDVRGHDASIYVCRVEVLGLGVGTGNGTRLVVEKEHPQLGAATVLLLRAGFYAVSFLSVAVGSTVYYQGKCLTWKGPRRQLPAVVPAPLPPPCGSSAHLLPPVPGG [G137A], the “effect of a mutation on the interaction” value was “with no effect”. For the variant MAWMLLLILIMVHPGSCALWVSQPPEIRTLEGSSAFLPCSFNASQGRLAIGSVTWFRDEVVPGKEVRNGTPEFRGRLAPLASSRFLHDHQAELHIRDVRGHDASIYVCRVEVLGLGVGTGNGTRLVVEKEHAQLGAGTVLLLRAGFYAVSFLSVAVGSTVYYQGKCLTWKGPRRQLPAVVPAPLPPPCGSSAHLLPPVPGG [P132A], the “effect of a mutation on the interaction” value was “with no effect”. MAWMLLLILIMVHPGSCALWVSQPPEIRTLEGSSAFLPCSFNASQGRLAIGSVTWFRDEVVPGKEVRNGTPEFRGRLAPLASSRFLHDHQAELHIRDVRGHDASIYVCRVEVLGLGVGTGNGTRLVVEKAHPQLGAGTVLLLRAGFYAVSFLSVAVGSTVYYQGKCLTWKGPRRQLPAVVPAPLPPPCGSSAHLLPPVPGG [E130A]: the “effect of a mutation on the interaction” value is given as “increasing interaction strength”.

Regarding MAWMLLLILIMVHPGSCALWVSQPPEIRTLEGSSAFLPCSFNASQGRLAIGSVTWFRDEVVPGKEVRNGTPEFRGRLAPLASSRFLHDHQAELHIRDVRGHDASIYVCRVEVLGLGVGTGNGTRLVVEKEHPQLGAGTALLLRAGFYAVSFLSVAVGSTVYYQGKCLTWKGPRRQLPAVVPAPLPPPCGSSAHLLPPVPGG [V139A], the “effect of a mutation on the interaction” value is “with no effect”.
